# Source: paper doi:10.1101/2021.03.19.436221
# Biological target: ALX301 (human)
# Experiment: SPR
binder,measurement,value
mouse CD47 (natural protein) QLLFSNVNSIEFTSCNETVVIPCIVRNVEAQSTEEMFVKWKLNKSYIFIYDGNKNSTTTDQNFTSAKISVSDLINGIASLKMDKRDAMVGNYTCEVTELSREGKTVIELKNRTVSWFSPNEKILIVIFPILAILLFWGKFGILTLKYKSSHTNKRIILLLVAGLVLTVIVVVGAILLIPGEKPVKNASGLGLIVISTGILILLQYNVFMTAFGMTSFTIAILITQVLGYVLALVGLCLCIMACEPVHGPLLISGLGIIALAELLGLVYMKFVASNQRTIQPPRNR,Kd,3.41 nM
